According to patent US7179650 (University of Texas, dated 2007):

B1: sentrin-1 (1-70) (yeast two-hybrid) (other)
chain: MSDQEAKPSTEDLGDKKQGEYIKLKVIGQDSSEIHFKVKMTTHLKKLKESYCQRQGVPMNSLRFLFEGQR
notes: also called deletion of the C-terminal 31 amino acids; not shown: GAL4 fusion domain of the two-hybrid vector
B2: UbCH6 (yeast two-hybrid) (enzyme, human, UniProt P51965 1-193, looked up)
chain: MSDDDSRASTSSSSSSSSNQQTEKETNTPKKKESKVSMSKNSKLLSTSAKRIQKELADITLDPPPNCSAGPKGDNIYEWRSTILGPPGSVYEGGVFFLDITFTPEYPFKPPKVTFRTRIYHCNINSQGVICLDILKDNWSPALTISKVLLSICSLLTDCNPADPLVGSIATQYMTNRAEHDRMARQWTKRYAT
notes: not shown: GAL4 fusion domain of the two-hybrid vector
B3: E2-EPF (yeast two-hybrid) (enzyme, human, UniProt Q16763 1-222, looked up)
chain: MNSNVENLPPHIIRLVYKEVTTLTADPPDGIKVFPNEEDLTDLQVTIEGPEGTPYAGGLFRMKLLLGKDFPASPPKGYFLTKIFHPNVGANGEICVNVLKRDWTAELGIRHVLLTIKCLLIHPNPESALNEEAGRLLLENYEEYAARARLLTEIHGGAGGPSGRAEAGRALASGTEASSTDPGAPGGPGGAEGPMAKKHAGERDKKLAAKKKTDKKRALRRL
notes: as for B2
B4: The N-terminal 23 amino acids of sentrin-1 (yeast two-hybrid) (peptide)
chain: MSDQEAKPSTEDLGDKKQGEYIK
notes: Range worked out from the words: the N-terminal 23 amino acids; also called sentrin-1 (1-23); not shown: GAL4 fusion domain of the two-hybrid vector
B5: sentrin-1 (24-101) (yeast two-hybrid) (other)
chain: LKVIGQDSSEIHFKVKMTTHLKKLKESYCQRQGVPMNSLRFLFEGQRIADNHTPKELGMEEEDVIEVYQEQTGGHSTV
notes: also called deletion of the N terminal 23 amino acids; not shown: GAL4 fusion domain of the two-hybrid vector
B6: Sentrin-1 with substitution of Ala-Ala for Gly-Gly (yeast two-hybrid) (other)
chain: MSDQEAKPSTEDLGDKKQGEYIKLKVIGQDSSEIHFKVKMTTHLKKLKESYCQRQGVPMNSLRFLFEGQRIADNHTPKELGMEEEDVIEVYQEQTAAHSTV
notes: as for B2

What was measured:
[1] = target: T1, Full-length human Ubc9 in pGAD424 (GAL4 activation domain fusion) (human, UniProt P04386 768-881; P63279 1-158); experiment: yeast two-hybrid
T1 construct: also called human ubiquitin conjugating enzyme

[2] = target: T2, Gal-4-sentrin-1 (pGBT9-sentrin-1, full-length sentrin-1 fused to the GAL4 DNA-binding domain) (human, UniProt P04386 1-147 (Saccharomyces cerevisiae entry)); experiment: yeast two-hybrid
T2 construct: also called wild type sentrin-1; sentrin-1 bait

Binder | binding result [1] | binding result [2]
B1 | no binding | 
B2 |  | no binding
B3 |  | no binding
B4 | no binding | 
B5 | binds | 
B6 | no binding | 
